Source: PMC10925295 (bioRxiv, 2024)

How the values were obtained:
[1] = target: UbcH5B-GSlinker-ccRING3 fusion protein (UniProt Q86YT6); test: crystal structure
[2] = target: the molecule itself; test: SEC-MALS
[3] = target: the molecule itself; test: crystal structure

UbcH5B-GSlinker-ccRING3 fusion protein (from UniProt Q86YT6 936-1006)
stoichiometry N [1]: 2

B1: ANK-RING1-3 of hMIB1 (residues 417-1006) (domain or fragment)
chain: QLLKKLFETQESGDLNEELVKAAANGDVAKVEDLLKRPDVDVNGQCAGHTAMQAASQNGHVDILKLLLKQNVDVEAEDKDGDRAVHHAAFGDEGAVIEVLHRGSADLNARNKRRQTPLHIAVNKGHLQVVKTLLDFGCHPSLQDSEGDTPLHDAISKKRDDILAVLLEAGADVTITNNNGFNALHHAALRGNPSAMRVLLSKLPRPWIVDEKKDDGYTALHLAALNNHVEVAELLVHQGNANLDIQNVNQQTALHLAVERQHTQIVRLLVRAGAKLDIQDKDGDTPLHEALRHHTLSQLRQLQDMQDVGKVDAAWEPSKNTLIMGLGTQGAEKKSAASIACFLAANGADLSIRNKKGQSPLDLCPDPNLCKALAKCHKEKVSGQVGSRSPSMISNDSETLEECMVCSDMKRDTLFGPCGHIATCSLCSPRVKKCLICKEQVQSRTKIEECVVCSDKKAAVLFQPCGHMCACENCANLMKKCVQCRAVVERRVPFIMCCGGKSSEDATDDISSGNIPVLQKDKDNTNVNADVQKLQQQLQDIKEQTMCPVCLDRLKNMIFLCGHGTCQLCGDRMSECPICRKAIERRILLY
stoichiometry N [2]: 2

B2: ccRING3 region of human MIB1 (third RING domain and adjacent coiled coil region, residues 936-1006) (domain or fragment)
chain: KDKDNTNVNADVQKLQQQLQDIKEQTMCPVCLDRLKNMIFLCGHGTCQLCGDRMSECPICRKAIERRILLY
stoichiometry N [3]: 2
